Substitutions are numbered along the chain they refer to. Read-outs that look alike come from different tables or passages of the source.
Columns and labels:
RBM39 RRM1 = molecular target: T1, RBM39 RRM1 (UniProt Q14498 142-237); assay: NMR solution structure
T1 sequence: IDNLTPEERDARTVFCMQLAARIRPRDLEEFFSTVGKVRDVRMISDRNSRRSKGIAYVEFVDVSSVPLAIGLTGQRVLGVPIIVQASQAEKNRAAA

RBM39 RRM12 = molecular target: T2, RBM39 RRM12 (UniProt Q14498 143-332); assay: NMR CSP
T2 sequence: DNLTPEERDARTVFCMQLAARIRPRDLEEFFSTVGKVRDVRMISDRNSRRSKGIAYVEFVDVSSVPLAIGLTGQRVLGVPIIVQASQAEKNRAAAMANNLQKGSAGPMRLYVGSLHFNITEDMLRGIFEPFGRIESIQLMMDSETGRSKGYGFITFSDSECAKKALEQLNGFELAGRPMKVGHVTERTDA

RBM39 RRM2 [1] = molecular target: T3, RBM39 RRM2 (UniProt Q14498 247-332); assay: NMR CSP
T3 sequence: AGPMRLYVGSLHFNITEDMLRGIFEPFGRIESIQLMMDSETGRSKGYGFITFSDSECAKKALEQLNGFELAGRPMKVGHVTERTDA

RBM39 RRM2 [2] = molecular target: T3, RBM39 RRM2; assay: NMR CSP; remark: listed apart in the source
RBM39 RRM2 [3] = molecular target: T3, RBM39 RRM2; assay: ITC
RBM39 RRM2 F259A = molecular target: T4, RBM39 RRM2 F259A (UniProt Q14498 247-332, F259A); assay: ITC
T4 sequence: T3 sequence with F13A

GB1-RBM39-RRM12 = molecular target: T5, GB1-RBM39-RRM12 (UniProt Q14498 143-332); assay: NMR CSP
T5 sequence: T2 sequence

GGGAUUUCCCCAAAUGUGGGAAACUCCC (structured_RNA) [U1 snRNA SL3]
binding result (RBM39 RRM1): binds | binding result (RBM39 RRM12): binds

CUCUUUG (ssRNA) [BS1 (CUCUUUG)]
binding result (RBM39 RRM2 [1]): binds

CCUCCCA (ssRNA) [mutBS1 (CCUCCCA)]
binding result (RBM39 RRM2 [2]): no binding

ACCUUUG (ssRNA) [BS2 (ACCUUUG)]
binding result (RBM39 RRM2 [1]): binds

AGCUUUG (ssRNA) [AGCUUUG ssRNA]
Kd (RBM39 RRM2 [3]): 9 ± 2 µM | binding signal (RBM39 RRM2 F259A): 4 fold lower affinity than WT

GGGGACUGCGUUCGCGCUUUCCCC (structured_RNA) [U1 snRNA SL4]
binding result (GB1-RBM39-RRM12): binds

GGACUGUCCACAAGACAGUCG (structured_RNA) [RBMY stem-loop aptamer]
binding result (GB1-RBM39-RRM12): binds

From article doi:10.1101/2022.08.30.505862
